B1: M2638 (bispecific antibody)
heavy: EVQLVESGGGLVQPGGSLRLSCAASGFTFSTYAMNWVRQAPGKGLEWVGRIRSKYNNYATYYADSVKGRFTISRDDSKNTLYLQMNSLRAEDTAVYYCVRHGNFGDSYVSWFAYWGQGTLVTVSSASTKGPSVFPLAPSSKSTSGGTAALGCLVKDYFPEPVTVSWNSGALTSGVHTFPAVLQSSGLYSLSSVVTVPSSSLGTQTYICNVNHKPSNTKVDKKVEPKSCGGGGSQEQLVESGGGLVQPGGSLKLSCKASGFDFSTYGVSWVRQAPGKGLEWIGYIDPVYGSTYYASWVNGRFTISSHNAQNTLYLQLNSLTAADTATYFCVRDLYAGSSGYYMIYSLWGPGTLVTVSSGGGGSGGGGSGGGGSGGGGSELVMTQTPSSVSAAVGGTVTIKCQSSQSVYNNLLGWYQQKPGQPPKLLIYSASTLASGVPSRFSGSGSGTEFTLTISGVQADDAASYYCQGTYYNGDWYYPFGGGTEVVVK
light: QAVVTQEPSLTVSPGGTVTLTCGSSTGAVTTSNYANWVQQKPGKSPRGLIGGTNKRAPGVPARFSGSLLGGKAALTISGAQPEDEADYYCALWYSNHWVFGGGTKLTVLGQPKAAPSVTLFPPSSEELQANKATLVCLISDFYPGAVTVAWKADSSPVKAGVETTTPSKQSNNKYAASSYLSLTPEQWKSHRSYSCQVTHEGSTVEKTVAPTECS
notes: Monovalent Fab-scFv: anti-CD3 Fab with the rabbit anti-pMHC scFv on the C-terminus of the Fab heavy chain; also called rabbit hit M2638; HLA-A*02:01/PRAMExCD3 Fab-scFv
B2: M3202 (bispecific antibody)
heavy: EVQLVESGGGLVQPGGSLRLSCAASGFTFSTYAMNWVRQAPGKGLEWVGRIRSKYNNYATYYADSVKGRFTISRDDSKNTLYLQMNSLRAEDTAVYYCVRHGNFGDSYVSWFAYWGQGTLVTVSSASTKGPSVFPLAPSSKSTSGGTAALGCLVKDYFPEPVTVSWNSGALTSGVHTFPAVLQSSGLYSLSSVVTVPSSSLGTQTYICNVNHKPSNTKVDKKVEPKSCGGGGSDIQMTQSPSSLSASVGDRVTITCRSSQSVYNNLLGWYQQKPGKAPKLLIYSASTLASGVPSRFSGSGSGTDFTLTISSLQPEDSATYYCQGTYYTGDWYYPFGCGTKVEIKGGGGSGGGGSGGGGSGGGGSQVQLVESGGGSVQPGRSLRLSCAASGFDFSTYGVSWVRQAPGKCLEWIGYIDPVYGSTHYADSVKGRFTISRDNSKNTLYLQMNSLRAEDTASYYCVRDLYAGSSGYYMIYSLWGQGTSVTVSS
light: QAVVTQEPSLTVSPGGTVTLTCGSSTGAVTTSNYANWVQQKPGKSPRGLIGGTNKRAPGVPARFSGSLLGGKAALTISGAQPEDEADYYCALWYSNHWVFGGGTKLTVLGQPKAAPSVTLFPPSSEELQANKATLVCLISDFYPGAVTVAWKADSSPVKAGVETTTPSKQSNNKYAASSYLSLTPEQWKSHRSYSCQVTHEGSTVEKTVAPTECS
notes: Humanized variant of M2638, monovalent Fab-scFv
B3: M3283 (bispecific antibody)
heavy: EVQLVESGGGLVQPGGSLRLSCAASGFTFSTYAMNWVRQAPGKGLEWVGRIRSKYNNYATYYADSVKGRFTISRDDSKNTLYLQMNSLRAEDTAVYYCVRHGNFGDSYVSWFAYWGQGTLVTVSSASTKGPSVFPLAPSSKSTSGGTAALGCLVKDYFPEPVTVSWNSGALTSGVHTFPAVLQSSGLYSLSSVVTVPSSSLGTQTYICNVNHKPSNTKVDKKVEPKSCGGGGSDIQMTQSPSSLSASVGDRVTITCRSSQSVYNNLLGWYQQKPGKAPKLLIYSASTLASGVPSRFSGSGSGTDFTLTISSLQPEDSATYYCQGTYYTGDWYYPFGCGTKVEIKGGGGSGGGGSGGGGSGGGGSQVQLVESGGGSVQPGRSLRLSCAASGFTFSTYGVSWVRQAPGKCLEWIGYIDPVYGSTHYADSVKGRFTISRDNSKNTLYLQMNSLRAEDTASYYCVRDLYAGSSGYYMIYSLWGQGTSVTVSS
light: QAVVTQEPSLTVSPGGTVTLTCGSSTGAVTTSNYANWVQQKPGKSPRGLIGGTNKRAPGVPARFSGSLLGGKAALTISGAQPEDEADYYCALWYSNHWVFGGGTKLTVLGQPKAAPSVTLFPPSSEELQANKATLVCLISDFYPGAVTVAWKADSSPVKAGVETTTPSKQSNNKYAASSYLSLTPEQWKSHRSYSCQVTHEGSTVEKTVAPTECS
notes: as for B2
B4: M3285 (bispecific antibody)
heavy: EVQLVESGGGLVQPGGSLRLSCAASGFTFSTYAMNWVRQAPGKGLEWVGRIRSKYNNYATYYADSVKGRFTISRDDSKNTLYLQMNSLRAEDTAVYYCVRHGNFGDSYVSWFAYWGQGTLVTVSSASTKGPSVFPLAPSSKSTSGGTAALGCLVKDYFPEPVTVSWNSGALTSGVHTFPAVLQSSGLYSLSSVVTVPSSSLGTQTYICNVNHKPSNTKVDKKVEPKSCGGGGSDIQMTQSPSSLSASVGDRVTITCRSSQSVYNNLLGWYQQKPGKAPKLLIYSASTLASGVPSRFSGSGSGTDFTLTISSLQPEDSATYYCQGTYYTGDWYYPFGCGTKVEIKGGGGSGGGGSGGGGSGGGGSQVQLVESGGGSVQPGRSLRLSCAASGFDFSTYGVSWVRQAPGKCLEWIGYIDPVYGSTHYADSVKGRFTISRDNSKNTLYLQMNSLRAEDTASYYCARDLYAGSSGYYMIYSLWGQGTSVTVSS
light: QAVVTQEPSLTVSPGGTVTLTCGSSTGAVTTSNYANWVQQKPGKSPRGLIGGTNKRAPGVPARFSGSLLGGKAALTISGAQPEDEADYYCALWYSNHWVFGGGTKLTVLGQPKAAPSVTLFPPSSEELQANKATLVCLISDFYPGAVTVAWKADSSPVKAGVETTTPSKQSNNKYAASSYLSLTPEQWKSHRSYSCQVTHEGSTVEKTVAPTECS
notes: as for B2
B5: M2913 (bispecific antibody)
heavy: EVQLVESGGGLVQPGGSLRLSCAASGFTFSTYAMNWVRQAPGKGLEWVGRIRSKYNNYATYYADSVKGRFTISRDDSKNTLYLQMNSLRAEDTAVYYCVRHGNFGDSYVSWFAYWGQGTLVTVSSASTKGPSVFPLAPSSKSTSGGTAALGCLVKDYFPEPVTVSWNSGALTSGVHTFPAVLQSSGLYSLSSVVTVPSSSLGTQTYICNVNHKPSNTKVDKKVEPKSCGGGGSDIQMTQSPSSLSASVGDRVTITCQSSQSVYNNLLGWYQQKPGKAPKLLIYSASTLASGVPSRFSGSGSGTDFTLTISSLQPEDFATYYCQGTYYNGDWYYPFGCGTKVEIKGGGGSGGGGSGGGGSGGGGSEVQLVESGGGSVQPGGSLRLSCAASGFDFSTYGVSWVRQAPGKCLEWIGYIDPVYGSTYYASWVNGRFTISRDNSKNTLYLQMNSLRAEDTASYYCVRDLYAGSSGYYMIYSLWGQGTSVTVSS
light: QAVVTQEPSLTVSPGGTVTLTCGSSTGAVTTSNYANWVQQKPGKSPRGLIGGTNKRAPGVPARFSGSLLGGKAALTISGAQPEDEADYYCALWYSNHWVFGGGTKLTVLGQPKAAPSVTLFPPSSEELQANKATLVCLISDFYPGAVTVAWKADSSPVKAGVETTTPSKQSNNKYAASSYLSLTPEQWKSHRSYSCQVTHEGSTVEKTVAPTECS
notes: as for B2
B6: M3284 (bispecific antibody)
heavy: EVQLVESGGGLVQPGGSLRLSCAASGFTFSTYAMNWVRQAPGKGLEWVGRIRSKYNNYATYYADSVKGRFTISRDDSKNTLYLQMNSLRAEDTAVYYCVRHGNFGDSYVSWFAYWGQGTLVTVSSASTKGPSVFPLAPSSKSTSGGTAALGCLVKDYFPEPVTVSWNSGALTSGVHTFPAVLQSSGLYSLSSVVTVPSSSLGTQTYICNVNHKPSNTKVDKKVEPKSCGGGGSDIQMTQSPSSLSASVGDRVTITCRSSQSVYNNLLGWYQQKPGKAPKLLIYSASTLASGVPSRFSGSGSGTDFTLTISSLQPEDSATYYCQGTYYTGDWYYPFGCGTKVEIKGGGGSGGGGSGGGGSGGGGSQVQLVESGGGSVQPGRSLRLSCAASGFTVSTYGVSWVRQAPGKCLEWIGYIDPVYGSTHYADSVKGRFTISRDNSKNTLYLQMNSLRAEDTASYYCVRDLYAGSSGYYMIYSLWGQGTSVTVSS
light: QAVVTQEPSLTVSPGGTVTLTCGSSTGAVTTSNYANWVQQKPGKSPRGLIGGTNKRAPGVPARFSGSLLGGKAALTISGAQPEDEADYYCALWYSNHWVFGGGTKLTVLGQPKAAPSVTLFPPSSEELQANKATLVCLISDFYPGAVTVAWKADSSPVKAGVETTTPSKQSNNKYAASSYLSLTPEQWKSHRSYSCQVTHEGSTVEKTVAPTECS
notes: as for B2
B7: M3182 (bispecific antibody)
heavy: EVQLVESGGGLVQPGGSLRLSCAASGFTFSTYAMNWVRQAPGKGLEWVGRIRSKYNNYATYYADSVKGRFTISRDDSKNTLYLQMNSLRAEDTAVYYCVRHGNFGDSYVSWFAYWGQGTLVTVSSASTKGPSVFPLAPSSKSTSGGTAALGCLVKDYFPEPVTVSWNSGALTSGVHTFPAVLQSSGLYSLSSVVTVPSSSLGTQTYICNVNHKPSNTKVDKKVEPKSCGGGGSDIQMTQSPSSLSASVGDRVTITCRSSQSVYNNLLGWYQQKPGKAPKLLIYSASTLASGVPSRFSGSGSGTDFTLTISSLQPEDFATYYCQGTYYTGDWYYPFGCGTKVEIKGGGGSGGGGSGGGGSGGGGSQVQLVESGGGSVQPGRSLRLSCAASGFDFSTYGVSWVRQAPGKCLEWIGYIDPVYGSTHYADSVKGRFTISRDNSKNTLYLQMNSLRAEDTASYYCVRDLYAGSSGYYMIYSLWGQGTSVTVSS
light: QAVVTQEPSLTVSPGGTVTLTCGSSTGAVTTSNYANWVQQKPGKSPRGLIGGTNKRAPGVPARFSGSLLGGKAALTISGAQPEDEADYYCALWYSNHWVFGGGTKLTVLGQPKAAPSVTLFPPSSEELQANKATLVCLISDFYPGAVTVAWKADSSPVKAGVETTTPSKQSNNKYAASSYLSLTPEQWKSHRSYSCQVTHEGSTVEKTVAPTECS
notes: as for B2

Target: T1, HLA-A*02:01/PRAME antigen (recombinant, … on HLA-A*02:01) (human, Complex biotinylated for SPR capture; site of biotin and any tag not stated, not in the letters.)
T1 construct: also called PRAME target; pMHC
Assay: SPR (Biacore 8K), biotinylated pMHC captured, Fab-scFv analyte, single-cycle kinetics, 1:1 fit
Procedure: Recombinantly produced hits in Fab-scFv format, as described in Example 4, were evaluated for their ability to bind HLA-A*02:01/PRAME antigen. Binding characterization was performed by surface plasmon resonance (SPR) using a Biacore™ 8k (Cytiva) device. Briefly, 3000 RU of Biotin CAPture reagent (Cytiva) was immobilized on a Series S Sensor Chip CAP (Cytiva) and the biotinylated ligand HLA-A*02:01/PRAME (SEQ ID NO: 68) was diluted in HPS-EP+ running buffer (TEKNOVA) and captured for 300 s at a flow rate of 2 μL/min at flow cell 2 resulting in a ligand capture level of >100 RU. Subsequently, at least three consecutive analyte injections were performed at suitable concentrations applying the single-cycle-kinetics mode at a flow rate of 30 μL/min with an association time of 90 s and the dissociation time set to >400 s. The chip surface was regenerated according to the manufacturer's instructions. After reference flow cell signal and blank injections subtraction, the data was fit to a 1:1 Langmuir binding model to determine the association rate constant kₐ and dissociation rate constant kd and calculate the equilibrium dissociation constant KD (kd/kₐ), also denoted as affinity, using the Biacore™ Insight Evaluation software.

**Q.** B1 was tested. Which Kd did it give?
**A.** 0.23 nM

**Q.** Which Kd does the source give for B2 here?
**A.** 0.04 nM

**Q.** With B3 as the binder, how does the Kd read?
**A.** 0.09 nM

**Q.** For B4, which Kd is on record?
**A.** 1.3 nM

**Q.** With B5 as the binder, how does the Kd read?
**A.** 0.66 nM

**Q.** With B6 as the binder, how does the Kd read?
**A.** 0.27 nM

**Q.** B7 was tested. Which Kd did it give?
**A.** 0.04 nM
